# Test results: publication PMC3113324, “AKAP5 and AKAP12 Form Homo-oligomers” (Journal of Molecular Signaling, 2011)
# Target: the molecule itself
# Assay: SDS-PAGE (SDS-resistant oligomers); whole-cell lysates of HEK293 cells on SDS-PAGE without urea; immunoblot with anti-HA or anti-AKAP12; cells also treated with isoproterenol (10 uM, 0, 5, 30 min), KT5720, PD98059 or Rolipram (45 min)
row,Protein,stoichiometry N
1,"HA-AKAP12 (1-938) (domain or fragment, human, UniProt Q02952 1-938, looked up, AKAP12, human, N-terminal fragment, residues 1-938; also called AKAP12 N-terminal (1-938) fragment; source: HEK293, transfected (pcDNA3.1), in whole-cell lysate) MGAGSSTEQRSPEQPPEGSSTPAEPEPSGGGPSAEAAPDTTADPAIAASDPATKLLQKNGQLSTINGVAEQDELSLQEGDLNGQKGALNGQGALNSQEEEEVIVTEVGQRDSEDVSKRDSDKEMATKSAVVHDITDDGQEETPEIIEQIPSSESNLEELTQPTESQANDIGFKKVFKFVGFKFTVKKDKTEKPDTVQLLTVKKDEGEGAAGAGDHKDPSLGAGEAASKESEPKQSTEKPEETLKREQSHAEISPPAESGQAVEECKEEGEEKQEKEPSKSAESPTSPVTSETGSTFKKFFTQGWAGWRKKTSFRKPKEDEVEASEKKKEQEPEKVDTEEDGKAEVASEKLTASEQAHPQEPAESAHEPRLSAEYEKVELPSEEQVSGSQGPSEEKPAPLATEVFDEKIEVHQEEVVAEVHVSTVEERTEEQKTEVEETAGSVPAEELVEMDAEPQEAEPAKELVKLKETCVSGEDPTQGADLSPDEKVLSKPPEGVVSEVEMLSSQERMKVQGSPLKKLFTSTGLKKLSGKKQKGKRGGGDEESGEHTQVPADSPDSQEEQKGESSASSPEEPEEITCLEKGLAEVQQDGEAEEGATSDGEKKREGVTPWASFKKMVTPKKRVRRPSESDKEDELDKVKSATLSSTESTASEMQEEMKGSVEEPKPEEPKRKVDTSVSWEALICVGSSKKRARRGSSSDEEGGPKAMGGDHQKADEAGKDKETGTDGILAGSQEHDPGQGSSSPEQAGSPTEGEGVSTWESFKRLVTPRKKSKSKLEEKSEDSIAGSGVEHSTPDTEPGKEESWVSIKKFIPGRRKKRPDGKQEQAPVEDAGPTGANEDDSDVPAVVPLSEYDAVEREKMEAQQAQKSAEQPEQKAATEVSKELSESQVHMMAAAVADGTRAATIIEERSPSWISASVTEPLEQVEAEAALLTEEVLE",2
2,"HA-tagged full-length AKAP12 (1-1782) (natural protein, human, UniProt Q02952 1-1782, looked up, AKAP12, human, full length (1-1782); also called HA-AKAP12; HA-tagged AKAP12; source: HEK293, transfected (pcDNA3.1), in whole-cell lysate) MGAGSSTEQRSPEQPPEGSSTPAEPEPSGGGPSAEAAPDTTADPAIAASDPATKLLQKNGQLSTINGVAEQDELSLQEGDLNGQKGALNGQGALNSQEEEEVIVTEVGQRDSEDVSKRDSDKEMATKSAVVHDITDDGQEETPEIIEQIPSSESNLEELTQPTESQANDIGFKKVFKFVGFKFTVKKDKTEKPDTVQLLTVKKDEGEGAAGAGDHKDPSLGAGEAASKESEPKQSTEKPEETLKREQSHAEISPPAESGQAVEECKEEGEEKQEKEPSKSAESPTSPVTSETGSTFKKFFTQGWAGWRKKTSFRKPKEDEVEASEKKKEQEPEKVDTEEDGKAEVASEKLTASEQAHPQEPAESAHEPRLSAEYEKVELPSEEQVSGSQGPSEEKPAPLATEVFDEKIEVHQEEVVAEVHVSTVEERTEEQKTEVEETAGSVPAEELVEMDAEPQEAEPAKELVKLKETCVSGEDPTQGADLSPDEKVLSKPPEGVVSEVEMLSSQERMKVQGSPLKKLFTSTGLKKLSGKKQKGKRGGGDEESGEHTQVPADSPDSQEEQKGESSASSPEEPEEITCLEKGLAEVQQDGEAEEGATSDGEKKREGVTPWASFKKMVTPKKRVRRPSESDKEDELDKVKSATLSSTESTASEMQEEMKGSVEEPKPEEPKRKVDTSVSWEALICVGSSKKRARRGSSSDEEGGPKAMGGDHQKADEAGKDKETGTDGILAGSQEHDPGQGSSSPEQAGSPTEGEGVSTWESFKRLVTPRKKSKSKLEEKSEDSIAGSGVEHSTPDTEPGKEESWVSIKKFIPGRRKKRPDGKQEQAPVEDAGPTGANEDDSDVPAVVPLSEYDAVEREKMEAQQAQKSAEQPEQKAATEVSKELSESQVHMMAAAVADGTRAATIIEERSPSWISASVTEPLEQVEAEAALLTEEVLEREVIAEEEPPTVTEPLPENREARGDTVVSEAELTPEAVTAAETAGPLGAEEGTEASAAEETTEMVSAVSQLTDSPDTTEEATPVQEVEGGVPDIEEQERRTQEVLQAVAEKVKEESQLPGTGGPEDVLQPVQRAEAERPEEQAEASGLKKETDVVLKVDAQEAKTEPFTQGKVVGQTTPESFEKAPQVTESIESSELVTTCQAETLAGVKSQEMVMEQAIPPDSVETPTDSETDGSTPVADFDAPGTTQKDEIVEIHEENEVASGTQSGGTEAEAVPAQKERPPAPSSFVFQEETKEQSKMEDTLEHTDKEVSVETVSILSKTEGTQEADQYADEKTKDVPFFEGLEGSIDTGITVSREKVTEVALKGEGTEEAECKKDDALELQSHAKSPPSPVEREMVVQVEREKTEAEPTHVNEEKLEHETAVTVSEEVSKQLLQTVNVPIIDGAKEVSSLEGSPPPCLGQEEAVCTKIQVQSSEASFTLTAAAEEEKVLGETANILETGETLEPAGAHLVLEEKSSEKNEDFAAHPGEDAVPTGPDCQAKSTPVIVSATTKKGLSSDLEGEKTTSLKWKSDEVDEQVACQEVKVSVAIEDLEPENGILELETKSSKLVQNIIQTAVDQFVRTEETATEMLTSELQTQAHVIKADSQDAGQETEKEGEEPQASAQDETPITSAKEESESTAVGQAHSDISKDMSEASEKTMTVEVEGSTVNDQQLEEVVLPSEEEGGGAGTKSVPEDDGHALLAERIEKSLVEPKEDEKGDDVDDPENQNSALADTDASGGLTKESPDTNGPKQKEKEDAQEVELQEGKVHSESDKAITPQAQEELQKQERESAKSELTES",2
3,"full-length endogenous AKAP12 (natural protein, human (endogenous in HEK293), UniProt Q02952 1-1782, looked up, AKAP12, endogenous in HEK293 cells, detected with anti-AKAP12 antibody; also called native AKAP12; endogenously expressed AKAP12; source: endogenous, HEK293 whole-cell lysate) MGAGSSTEQRSPEQPPEGSSTPAEPEPSGGGPSAEAAPDTTADPAIAASDPATKLLQKNGQLSTINGVAEQDELSLQEGDLNGQKGALNGQGALNSQEEEEVIVTEVGQRDSEDVSKRDSDKEMATKSAVVHDITDDGQEETPEIIEQIPSSESNLEELTQPTESQANDIGFKKVFKFVGFKFTVKKDKTEKPDTVQLLTVKKDEGEGAAGAGDHKDPSLGAGEAASKESEPKQSTEKPEETLKREQSHAEISPPAESGQAVEECKEEGEEKQEKEPSKSAESPTSPVTSETGSTFKKFFTQGWAGWRKKTSFRKPKEDEVEASEKKKEQEPEKVDTEEDGKAEVASEKLTASEQAHPQEPAESAHEPRLSAEYEKVELPSEEQVSGSQGPSEEKPAPLATEVFDEKIEVHQEEVVAEVHVSTVEERTEEQKTEVEETAGSVPAEELVEMDAEPQEAEPAKELVKLKETCVSGEDPTQGADLSPDEKVLSKPPEGVVSEVEMLSSQERMKVQGSPLKKLFTSTGLKKLSGKKQKGKRGGGDEESGEHTQVPADSPDSQEEQKGESSASSPEEPEEITCLEKGLAEVQQDGEAEEGATSDGEKKREGVTPWASFKKMVTPKKRVRRPSESDKEDELDKVKSATLSSTESTASEMQEEMKGSVEEPKPEEPKRKVDTSVSWEALICVGSSKKRARRGSSSDEEGGPKAMGGDHQKADEAGKDKETGTDGILAGSQEHDPGQGSSSPEQAGSPTEGEGVSTWESFKRLVTPRKKSKSKLEEKSEDSIAGSGVEHSTPDTEPGKEESWVSIKKFIPGRRKKRPDGKQEQAPVEDAGPTGANEDDSDVPAVVPLSEYDAVEREKMEAQQAQKSAEQPEQKAATEVSKELSESQVHMMAAAVADGTRAATIIEERSPSWISASVTEPLEQVEAEAALLTEEVLEREVIAEEEPPTVTEPLPENREARGDTVVSEAELTPEAVTAAETAGPLGAEEGTEASAAEETTEMVSAVSQLTDSPDTTEEATPVQEVEGGVPDIEEQERRTQEVLQAVAEKVKEESQLPGTGGPEDVLQPVQRAEAERPEEQAEASGLKKETDVVLKVDAQEAKTEPFTQGKVVGQTTPESFEKAPQVTESIESSELVTTCQAETLAGVKSQEMVMEQAIPPDSVETPTDSETDGSTPVADFDAPGTTQKDEIVEIHEENEVASGTQSGGTEAEAVPAQKERPPAPSSFVFQEETKEQSKMEDTLEHTDKEVSVETVSILSKTEGTQEADQYADEKTKDVPFFEGLEGSIDTGITVSREKVTEVALKGEGTEEAECKKDDALELQSHAKSPPSPVEREMVVQVEREKTEAEPTHVNEEKLEHETAVTVSEEVSKQLLQTVNVPIIDGAKEVSSLEGSPPPCLGQEEAVCTKIQVQSSEASFTLTAAAEEEKVLGETANILETGETLEPAGAHLVLEEKSSEKNEDFAAHPGEDAVPTGPDCQAKSTPVIVSATTKKGLSSDLEGEKTTSLKWKSDEVDEQVACQEVKVSVAIEDLEPENGILELETKSSKLVQNIIQTAVDQFVRTEETATEMLTSELQTQAHVIKADSQDAGQETEKEGEEPQASAQDETPITSAKEESESTAVGQAHSDISKDMSEASEKTMTVEVEGSTVNDQQLEEVVLPSEEEGGGAGTKSVPEDDGHALLAERIEKSLVEPKEDEKGDDVDDPENQNSALADTDASGGLTKESPDTNGPKQKEKEDAQEVELQEGKVHSESDKAITPQAQEELQKQERESAKSELTES",2
4,"HA-AKAP12 (840-1782) (domain or fragment, human, UniProt Q02952 840-1782, looked up, AKAP12, human, C-terminal fragment, residues 840-1782; also called AKAP12 C-terminal (840-1782) fragment; source: HEK293, transfected (pcDNA3.1), in whole-cell lysate) DSDVPAVVPLSEYDAVEREKMEAQQAQKSAEQPEQKAATEVSKELSESQVHMMAAAVADGTRAATIIEERSPSWISASVTEPLEQVEAEAALLTEEVLEREVIAEEEPPTVTEPLPENREARGDTVVSEAELTPEAVTAAETAGPLGAEEGTEASAAEETTEMVSAVSQLTDSPDTTEEATPVQEVEGGVPDIEEQERRTQEVLQAVAEKVKEESQLPGTGGPEDVLQPVQRAEAERPEEQAEASGLKKETDVVLKVDAQEAKTEPFTQGKVVGQTTPESFEKAPQVTESIESSELVTTCQAETLAGVKSQEMVMEQAIPPDSVETPTDSETDGSTPVADFDAPGTTQKDEIVEIHEENEVASGTQSGGTEAEAVPAQKERPPAPSSFVFQEETKEQSKMEDTLEHTDKEVSVETVSILSKTEGTQEADQYADEKTKDVPFFEGLEGSIDTGITVSREKVTEVALKGEGTEEAECKKDDALELQSHAKSPPSPVEREMVVQVEREKTEAEPTHVNEEKLEHETAVTVSEEVSKQLLQTVNVPIIDGAKEVSSLEGSPPPCLGQEEAVCTKIQVQSSEASFTLTAAAEEEKVLGETANILETGETLEPAGAHLVLEEKSSEKNEDFAAHPGEDAVPTGPDCQAKSTPVIVSATTKKGLSSDLEGEKTTSLKWKSDEVDEQVACQEVKVSVAIEDLEPENGILELETKSSKLVQNIIQTAVDQFVRTEETATEMLTSELQTQAHVIKADSQDAGQETEKEGEEPQASAQDETPITSAKEESESTAVGQAHSDISKDMSEASEKTMTVEVEGSTVNDQQLEEVVLPSEEEGGGAGTKSVPEDDGHALLAERIEKSLVEPKEDEKGDDVDDPENQNSALADTDASGGLTKESPDTNGPKQKEKEDAQEVELQEGKVHSESDKAITPQAQEELQKQERESAKSELTES",2
